Consider 2 molecules from paper PMC4184033 (Nature structural & molecular biology, 2011).

Sequences and labels used below:
B2: Cdc45 (natural protein, Drosophila melanogaster, UniProt O96989 1-575, looked up)
chain: MFVQDLRNDFYRQLVGKRILIVVNYDIDAICASRILQALFKYDHMLYTVVPIMGVTGLKRAYGEHQGDVKYVVLVNCGGCVDIVELLQPSDDVTFFICDSHRPLDVCNIYSDRQVCILGDASLEENIPAFETIFYDSEGEDEDEDESSDTEQQHDDSGAGESDQEDQAPRSRKLSRLERHEQRILKQRARRQWESERDRIMFEYTQFSYYGRSAALMVFELAWKLSKDNMDLLWWAIVGITEQLLLGKIESGAYTLELEQIQSHVSRLTNKTNDQNTMSASKITFENDLHLVLYRHWPVTESMRYSRYSSCQLKLWTLRGEKRLHELLLEMGLPLVHARQTYGAMDLVLRKEFFSMVERLAEKYDIADIVYGTFTLSYGYRSRYAAADYVYALLAIMESVKKHKTPEDCFLEASDALSRQHKQLLSAGIDQAKLLHAAVFRQVQSSLEARQVHSAGSFFYYVLQEEHAFFSYPYALGLLARFLLRGHVATSRARQASDLPLIASCPLNASEGMCLLVGIVPVREDSPRNFFGKAFEQAAQKSGVALLQDFFEPAVVQLRQSDLTRFLDSLTVLLA

Common to all, as to experiment: negative-stain single-particle EM
The assay “Cdc45” concerns the target B2.
The target of a further assay is T1, Mcm5 (Drosophila melanogaster, UniProt Q9VGW6 1-733).
T1 sequence (looked up): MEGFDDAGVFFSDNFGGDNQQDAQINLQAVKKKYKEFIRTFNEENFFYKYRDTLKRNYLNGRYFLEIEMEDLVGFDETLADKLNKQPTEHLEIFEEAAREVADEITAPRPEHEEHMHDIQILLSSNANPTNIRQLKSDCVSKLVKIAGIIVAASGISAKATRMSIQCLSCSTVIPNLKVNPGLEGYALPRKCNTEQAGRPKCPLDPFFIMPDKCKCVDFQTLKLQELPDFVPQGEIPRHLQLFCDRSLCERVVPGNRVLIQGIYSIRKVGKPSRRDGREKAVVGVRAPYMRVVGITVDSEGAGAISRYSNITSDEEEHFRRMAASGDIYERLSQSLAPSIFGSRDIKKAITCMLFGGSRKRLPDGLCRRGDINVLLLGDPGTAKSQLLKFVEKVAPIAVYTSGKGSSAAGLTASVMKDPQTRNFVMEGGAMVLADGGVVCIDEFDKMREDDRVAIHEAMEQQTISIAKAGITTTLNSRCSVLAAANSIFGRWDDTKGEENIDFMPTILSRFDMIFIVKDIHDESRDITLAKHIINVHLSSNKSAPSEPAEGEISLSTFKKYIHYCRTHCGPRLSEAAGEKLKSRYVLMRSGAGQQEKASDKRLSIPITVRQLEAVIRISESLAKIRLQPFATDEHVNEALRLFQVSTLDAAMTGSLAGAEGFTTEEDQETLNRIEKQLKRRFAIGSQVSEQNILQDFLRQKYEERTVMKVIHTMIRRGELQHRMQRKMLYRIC

The target of the next assay is T2, Mcm2 (Drosophila melanogaster, UniProt P49735 1-887).
T2 sequence (looked up): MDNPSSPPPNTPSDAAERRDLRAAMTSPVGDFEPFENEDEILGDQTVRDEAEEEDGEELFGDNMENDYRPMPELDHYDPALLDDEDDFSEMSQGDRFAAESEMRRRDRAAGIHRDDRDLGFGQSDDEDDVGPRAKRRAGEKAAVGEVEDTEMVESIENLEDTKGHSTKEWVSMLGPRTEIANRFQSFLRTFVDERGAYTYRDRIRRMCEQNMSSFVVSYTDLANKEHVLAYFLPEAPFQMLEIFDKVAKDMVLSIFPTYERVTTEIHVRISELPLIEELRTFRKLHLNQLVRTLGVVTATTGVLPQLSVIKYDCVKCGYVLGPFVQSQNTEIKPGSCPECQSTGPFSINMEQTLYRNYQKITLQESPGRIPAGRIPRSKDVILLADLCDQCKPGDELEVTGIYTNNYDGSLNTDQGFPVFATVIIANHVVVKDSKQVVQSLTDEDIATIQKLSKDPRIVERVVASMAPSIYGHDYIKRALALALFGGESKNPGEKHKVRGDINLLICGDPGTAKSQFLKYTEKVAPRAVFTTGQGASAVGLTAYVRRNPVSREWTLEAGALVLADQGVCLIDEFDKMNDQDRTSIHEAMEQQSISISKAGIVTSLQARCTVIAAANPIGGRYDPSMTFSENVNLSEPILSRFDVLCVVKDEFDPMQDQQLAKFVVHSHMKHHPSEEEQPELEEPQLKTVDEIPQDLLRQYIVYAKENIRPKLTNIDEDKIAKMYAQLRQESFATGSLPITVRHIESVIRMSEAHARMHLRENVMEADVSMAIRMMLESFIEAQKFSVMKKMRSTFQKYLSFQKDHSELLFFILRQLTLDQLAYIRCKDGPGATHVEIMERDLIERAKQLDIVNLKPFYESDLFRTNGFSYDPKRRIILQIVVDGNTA

B1: Psf2 (natural protein, Drosophila melanogaster, UniProt Q9VQY9 1-203, looked up)
chain: MDPSIIEFIGEKCMISIIPNFSNEPLHLIYGPVGPFRAGFPVFVPLWMATHLRKQQKCRIVPPEWMDMDILEEIKEEEKRSKFFTKMPCEHYMVVAQLVMSTAPDDVPRCEELRTVIKDIFDIRESKLRTSIDAFIKGEGTYAKLDNLTLLEIHSVRPILPYSLDHIARYQRTATASQRDTSMLSASMAGSSSGPNSNSLFSQ
B1: the binding result in the assay with Cdc45 and with Mcm5 was “binds” throughout. For the molecule B2, the binding result in the assay with Mcm2 is “binds”.
